Tests used:
human LILRB1 Variant 2 = molecular target: T1, human LILRB1 Variant 2 (human, UniProt Q8NHL6 24-458, limits assumed); assay: ELISA (FIG. 12B)
T1 construct: protein bought from Kactusbio, LLC (Cat: LIL-HM2V1 and LIL-HM2V2 for Variant 2 and 3)

human LILRB1 Variant 3 = molecular target: T2, human LILRB1 Variant 3 (human, UniProt Q8NHL6 24-458, limits assumed); assay: ELISA (FIG. 12C)
T2 construct: protein bought from Kactusbio, LLC

human LILRA4 = molecular target: T3, human LILRA4 (human, UniProt P59901 24-446); assay: ELISA, OD450, antibody at 200 nM; + = 2-fold over ISO
T3 construct: bought protein coated for ELISA; also called hLILRA4

human LILRA1 [1] = molecular target: T4, human LILRA1 (human, UniProt O75019 17-461, limits assumed); assay: as above
T4 construct: bought protein coated for ELISA; also called hLILRA1

human LILRA3 [2] = molecular target: T5, human LILRA3 (human, UniProt Q8N6C8 24-439); assay: as above
T5 construct: bought protein coated for ELISA; also called hLILRA3

human LILRA2 = molecular target: T6, human LILRA2 (human, UniProt Q8N149 24-449); assay: as above
T6 construct: bought protein coated for ELISA; also called hLILRA2

human LILRB5 = molecular target: T7, human LILRB5 (human, UniProt O75023 24-458); assay: as above
T7 construct: bought protein coated for ELISA; also called hLILRB5

human LILRB3 = molecular target: T8, human LILRB3 (human, UniProt O75022 24-443); assay: as above
T8 construct: bought protein coated for ELISA; also called hLILRB3

human LILRA1 [3] = molecular target: T9, human LILRA1 (human, UniProt O75019 17-461, limits assumed); assay: as above; remark: listed apart in the source
T9 construct: bought protein coated for ELISA; also called hLILRA1

human LILRA3 [4] = molecular target: T10, human LILRA3 (human, UniProt Q8N6C8 24-439); assay: as above; remark: listed apart in the source
T10 construct: bought protein coated for ELISA; also called hLILRA3

human LILRB4 = molecular target: T11, human LILRB4 (human, UniProt Q8NHJ6 22-259); assay: ELISA, antibody at 200 nM, OD450; + = 2-fold over ISO
T11 construct: Bought protein; also called hLILRB4

human LILRA1 [5] = molecular target: T12, human LILRA1 (human, UniProt O75019 17-461, limits assumed); assay: as above
T12 construct: Bought protein; also called hLILRA1

Biotinylated LILRB1 [6] = molecular target: T13, Biotinylated LILRB1 (UniProt Q8NHL6 24-458, limits assumed, biotinylated (sites not given)); assay: epitope binning ELISA, coated 1 ug/ml; competitor LK-RB1-12 at 20 ug/ml
Biotinylated LILRB1 [7] = molecular target: T13, Biotinylated LILRB1; assay: epitope binning ELISA, coated 1 ug/ml; competitor LK-RB1-16 at 20 ug/ml
Biotinylated LILRB1 [8] = molecular target: T13, Biotinylated LILRB1; assay: epitope binning ELISA, coated 1 ug/ml; competitor 15G8 at 20 ug/ml
Biotinylated LILRB1 [9] = molecular target: T13, Biotinylated LILRB1; assay: epitope binning ELISA, coated 1 ug/ml; competitor hz73D1.v1 at 20 ug/ml
Biotinylated LILRB1 [10] = molecular target: T13, Biotinylated LILRB1; assay: epitope binning ELISA, coated 1 ug/ml; competitor LK-RB1-47 at 20 ug/ml
human LILRB1 = molecular target: T14, human LILRB1 (human, UniProt Q8NHL6 24-458, limits assumed); assay: Octet off-rate ranking;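 further: antibody dissociation rate constants against cynomolgus LILRB2 plus human LILRB1, LILRB2, LILRA1 and LILRA2, measured on an Octet instrument to rank binding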
T14 construct: also called hLILRB1

human LILRA1 [11] = molecular target: T15, human LILRA1 (human, UniProt O75019 17-461, limits assumed); assay: Octet off-rate ranking;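 further: antibody dissociation rate constants against cynomolgus LILRB2 plus human LILRB1, LILRB2, LILRA1 and LILRA2, measured on an Octet instrument to rank binding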
T15 construct: also called hLILRA1

Biotinylated LILRB1 [12] = molecular target: T13, Biotinylated LILRB1; assay: epitope binning ELISA, coated 1 ug/ml; competitor LK-RB1-33 at 20 ug/ml
Biotinylated LILRB1 [13] = molecular target: T13, Biotinylated LILRB1; assay: epitope binning ELISA, coated 1 ug/ml; competitor LK-RB1-31 at 20 ug/ml
Biotinylated LILRB1 [14] = molecular target: T13, Biotinylated LILRB1; assay: epitope binning ELISA, coated 1 ug/ml; competitor LK-RB1-9 at 20 ug/ml

T7 sequence (O75023 24-458 limits assumed): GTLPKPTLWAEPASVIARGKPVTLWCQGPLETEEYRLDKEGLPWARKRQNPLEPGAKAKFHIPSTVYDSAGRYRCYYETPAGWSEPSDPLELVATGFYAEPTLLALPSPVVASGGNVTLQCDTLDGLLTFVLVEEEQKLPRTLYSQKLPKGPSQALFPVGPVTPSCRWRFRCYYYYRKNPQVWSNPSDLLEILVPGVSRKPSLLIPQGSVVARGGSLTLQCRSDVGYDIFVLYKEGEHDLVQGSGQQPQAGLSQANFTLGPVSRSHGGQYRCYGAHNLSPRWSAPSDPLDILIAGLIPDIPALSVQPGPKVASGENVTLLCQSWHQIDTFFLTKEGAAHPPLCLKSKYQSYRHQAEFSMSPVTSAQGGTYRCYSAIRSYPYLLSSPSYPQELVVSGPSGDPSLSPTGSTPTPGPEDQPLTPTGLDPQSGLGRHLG
T13 sequence (Q8NHL6 24-458 limits assumed): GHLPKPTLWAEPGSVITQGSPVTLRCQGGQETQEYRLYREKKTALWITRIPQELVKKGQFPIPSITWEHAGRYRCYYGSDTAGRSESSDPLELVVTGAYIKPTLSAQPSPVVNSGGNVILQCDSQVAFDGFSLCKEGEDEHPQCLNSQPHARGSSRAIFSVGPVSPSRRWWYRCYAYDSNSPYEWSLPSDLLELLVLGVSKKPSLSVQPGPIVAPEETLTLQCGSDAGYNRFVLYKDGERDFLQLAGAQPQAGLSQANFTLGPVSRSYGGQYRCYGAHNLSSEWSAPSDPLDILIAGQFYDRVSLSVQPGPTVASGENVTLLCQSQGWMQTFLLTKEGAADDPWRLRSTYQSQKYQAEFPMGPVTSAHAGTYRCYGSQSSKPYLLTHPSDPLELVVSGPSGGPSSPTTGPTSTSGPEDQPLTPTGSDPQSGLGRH
T2 sequence (Q8NHL6 other isoform, or with tags, fused parts or gaps mutant limits assumed): as the sequence (Q8NHL6 24-458 limits assumed) above, with L45P, I119T, S132I counted along it
T1 sequence (Q8NHL6 other isoform, or with tags, fused parts or gaps mutant limits assumed): as the sequence (Q8NHL6 24-458 limits assumed) above, with L45P, A70T, I119T, S132I counted along it
T14 sequence (Q8NHL6 24-458 limits assumed): as the sequence (Q8NHL6 24-458 limits assumed) above
T6 sequence (Q8N149 24-449 limits assumed): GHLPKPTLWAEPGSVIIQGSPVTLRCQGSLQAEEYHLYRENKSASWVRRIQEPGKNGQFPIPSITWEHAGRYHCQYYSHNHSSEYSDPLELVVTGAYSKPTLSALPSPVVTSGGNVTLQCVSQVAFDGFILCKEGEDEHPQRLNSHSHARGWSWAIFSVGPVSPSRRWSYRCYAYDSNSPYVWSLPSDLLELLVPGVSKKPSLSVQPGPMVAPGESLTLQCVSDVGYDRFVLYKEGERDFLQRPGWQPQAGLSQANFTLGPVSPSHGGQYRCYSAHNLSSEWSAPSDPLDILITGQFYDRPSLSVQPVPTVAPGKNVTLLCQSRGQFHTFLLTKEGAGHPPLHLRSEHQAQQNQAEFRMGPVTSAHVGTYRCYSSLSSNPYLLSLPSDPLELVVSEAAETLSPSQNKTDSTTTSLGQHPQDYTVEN
T3 sequence (P59901 24-446 limits assumed): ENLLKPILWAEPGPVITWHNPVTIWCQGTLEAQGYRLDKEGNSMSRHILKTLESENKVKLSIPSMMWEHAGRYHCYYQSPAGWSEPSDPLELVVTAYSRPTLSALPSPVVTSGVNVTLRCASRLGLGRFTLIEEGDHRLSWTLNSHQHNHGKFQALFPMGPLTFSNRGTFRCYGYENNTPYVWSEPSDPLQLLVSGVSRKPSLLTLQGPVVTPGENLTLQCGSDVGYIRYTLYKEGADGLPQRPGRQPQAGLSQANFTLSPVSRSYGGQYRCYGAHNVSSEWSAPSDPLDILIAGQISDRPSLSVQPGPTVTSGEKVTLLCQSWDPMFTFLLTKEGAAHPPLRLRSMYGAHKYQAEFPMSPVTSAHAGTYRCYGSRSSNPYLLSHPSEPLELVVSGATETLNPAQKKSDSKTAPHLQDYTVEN

B1: LK-RB1-9.h1 (antibody, human IgG4, kappa, V domains shown)
VH: QVQLVQSGSELKKPGASVKVSCKASGYTFTTYGMSWVRQAPGQGLEWMGWINTYSGVPTYADDFKGRFVFSLDTSVSTAYLQISSLKAEDTAVYYCARRRRTYHGYLSFDYWGQGTTVTVSS
VL: DIQMTQSPSSLSASVGDRVTITCETSENIYGALNWYQQKPGKAPKLLIYGATNLAEGVPSRFSGSGSGTDFTFTISSLQPEDIATYYCQNVLNTPWTFGGGTKLEIKR
notes: humanized LK-RB1-9
B1: binds (human LILRB1 Variant 2); binds (human LILRB1 Variant 3).

B2: LK-RB1-16.h3 (antibody, human IgG4, kappa, V domains shown)
VH: QVQLQESGPGLVKPSETLSLTCTVSGFSLISNAISWIRQPPGKGLEWLGVIWGDGNTIYHSALRSRLTISKDTSKNQVFLKLSSVTAADTAVYYCAKANWDGYYFDYWGQGTTVTVSS
VL: DIQMTQSPSTLSASVGDRVTITCHASQSVDFWLNWYQQKPGKAPKLLISKASNLHTGVPSRFSGSGSGTEFTLTISSLQPDDFATYYCQQGQSYPLTFGQGTKLEIKR
notes: humanized LK-RB1-16
B2: binds (human LILRB1 Variant 2); binds (human LILRB1 Variant 3).

B3: LK-RB1-2 (antibody, human IgG4 S228P, kappa, V domains shown)
VH: QIQLVQSGPELKKPGETVKISCKASGYTFTTYGVSWVKQAPGKGLKWMGWINTYSGVSTYSDDFKGRFAFSLETSASTAYLQIINLKNEDAATYFCSRRRRTYDGYLSFDYWGQGTTLTVSS
VL: DIQMTQSPGSLSASVGETVTITCGASENIYGALNWFQRKPGKSPQLLIYGATNLADGMSSRFSGSGSGRQYSLQISSLRPDDVATYYCQNVLTTPWTFGGGTKVEIKR
notes: anti-LILRB1 antibody
B3: binds (human LILRA4).

B4: LK-RB1-11 (antibody, human IgG4 S228P, kappa, V domains shown)
VH: QVTLKESGPGILQPSQTLSLTCSFSGFSLKTSGMSVGWIRQPSGKGLEWLAHIWWNDDKYYNPVLKGRLTISKDTSNNLVFLKIASVVSTDTATYYCVRYGNSHGYWYFDVWGTGTTVTVSS
VL: NIVLTQSPASLAVSLGQRATISCRASESVDSYGNNFIHWYQQKPGQPPKVLIYYASNLEAGVPARFSGSGSRTDFTLTIDPVEAEDAATYYCQQNNEDPYTFGGGTKLEIER
notes: anti-LILRB1 antibody
B4: binds (human LILRA1 [1]); binds (human LILRA3 [2]).

B5: LK-RB1-13 (antibody, human IgG4 S228P, kappa, V domains shown)
VH: QVTLKESGPGIVKPSQTLSLTCSFSGFSLSISGTGIGWIRQPSGKGLEWLAHIWWDDDKYYNPSLKSQVTISKDTSTKQVFLNITSVDTADTATYYCTRTELGRGDFWGQGTSVTVSS
VL: DILLTQSPAILSVSPGDRVSFSCRASQSTGTNIHWYQRRTNGSPRLLIKYGSESISGIPSRFSGSGTGTDFTLTINSVESEDIADYYCQQSYSWPYTFGGGTKLEIKR
notes: anti-LILRB1 antibody
B5: binds (human LILRA2).

B6: LK-RB1-15 (antibody, human IgG4 S228P, kappa, V domains shown)
VH: QVTLKESGPGIVKPSQTLSLTCSFSGFSLSISGTGIGWIRQPSGKGLEWLAHIWWDDDKYYNPSLKSQVTISKDTSTKQVFLNITSVDTADTATYYCTRTELGRGDFWGQGTSVTVSS
VL: DILLTQSPAILSVSPGDRVSFSCRASQSIGTNIHWYQRRTNGSPRLLIKYGSESISGIPSRFSGSGTGTDFTLTINSVESEDIADYYCQQSYSWPYTFGGGTKLEIKR
notes: anti-LILRB1 antibody
B6: binds (human LILRA1 [1]); binds (human LILRA3 [2]).

B7: LK-RB1-35 (antibody, human IgG4 S228P, kappa, V domains shown)
VH: DVQLQESGPGLEKPSQSLSLTCSVTGYSITRGYQWNWIRQFPGNKLEWMGYISYDGSNNYNPSLKNRISITRDASKNQFFLKLNSVTTEDTATYYCARRSYNSIDYWGQGTTLTVSS
VL: DIVLTQSPATLSVTPGDSVSLSCRASQSISSNLHWYQQKSHESPRLLIKYASQSISGIPSRFSGSGSGTDFTLSINSVETEDFGMYFCQQSNSWPLTFGAGTKLELKR
notes: anti-LILRB1 clone from mouse hybridoma
B7: binds (human LILRB5); binds (human LILRB3).

B8: LK-RB1-36 (antibody, human IgG4 S228P, kappa, V domains shown)
VH: DVQLQESGPGLEKPSQSLSLTCSVTGYSITRGYQWNWIRQFPGNKLEWMGYISYDGSNNYNPSLKNRISIIRDTSKNQFFLKLNSVTTEDTATYYCARRSYNSIDYWGQGTTLTVSS
VL: DIVLTQSPATLSVTPGDSVSLSCRASQSISNNLHWYQQKSHESPRLLIKYASQSISGIPSRFSGSGSGTDFTLSINSVETEDFGMYFCQQSNSWPLTFGAGTKLELKR
notes: as for B7
B8: binds (human LILRB5); binds (human LILRB3).

B9: LK-RB1-39 (antibody, human IgG4 S228P, kappa, V domains shown)
VH: EVQLQQSGAELVRPGASVKLSCTASGFNIKDDYVHWVNQRPEQGLEWIGWIDPENGDTGYASKFQDKATITADTSSNTAYLHLSSLTSEDTAVYYCTTTRWTGSYWGQGTTLTVSS
VL: QIVLTQSPAIMSASPGEKVTITCSASSSVNYMHWFQQKPGSSPKLWIYSTANLASGVPARFSGSGSGTSYSLTISRMEAEDAATYYCQQRSSYPPTWTFGGGTKLEIKR
notes: as for B7
B9: binds (human LILRA1 [3]); binds (human LILRA3 [4]); binds (human LILRB5). B9: binds (human LILRB3).

B10: LK-RB1-45 (antibody, human IgG4 S228P, kappa, V domains shown)
VH: QVQLQQSGTELARPGASVKLSCKASGYTFTNFWMHWIKQRPGQGLEWIGYVNPTSDYTKYNQKFKDKATLTADKSSSTAYMQLNSLTYEDSAVYYCTRSSLYDTNYVFDSWGQGTTLTVSS
VL: DILLTQSPAILSVSPGERVSFSCRASQSIGRSIHWYQQRTNGSPRLLIKYASESISGIPSRFSGGGSGTDFTLSISNVESEDIADYYCQQSNNWPFTFGSGTKLEIKR
notes: as for B7
B10: binds (human LILRA3 [4]).

B11: LK-RB2-12 (antibody, human IgG4 S228P, kappa, V domains shown)
VH: QIQLVQSGPELKKPGETVKISCKASGYTFTTYGMSWVKQTPGKGLKWMGWINIYSGVPTYADDFKGRFVFSLEISASTAHLQINNLKNEDTATYFCARRKDYSGHCFDYWGQGTTLTVSS
VL: DIVLTQSPASLAVSPGQRATISCRASESVDTYGISFMHWYQQKPGQPPKLLIYRASNLESGIPARFSGSGSRTDFTLTINPVETDDVAIYYCQQSKKDPYTFGGGTKLEIKR
B11: binds (human LILRB4); binds (human LILRA1 [5]).

B12: LK-RB2-15 (antibody, human IgG4 S228P, kappa, V domains shown)
VH: QIQLVQSGPELKKPGETVKISCKASGYTFTTYGMSWVKQAPGKGLKWMGWINVYSGVPTYADDFKGRFAFSLEISASTAYLQINNLKDEDTATYFCARRKDYSGHCFDYWGQGTTLTVSS
VL: DIVLTQSPASLAVSLGQRATFSCRASESVDTYGISFMHWYQQKPGQPPKLLIYRASNLESGIPARFSGSGSRTDFTLTINPVETDDVATYYCQQSKKEPYTFGGGTKLEIKR
B12: binds (human LILRB4); binds (human LILRA1 [5]).

B13: hz73D1.v1 (antibody, human IgG4 S228P, kappa, V domains shown)
VH: QVQLVQSGAEVKKPGASVKVSCKASGYTFTDYYINWVRQAPGQGLEWMGNVNPNDGGTTYNQKFKGRVTMTTDTSTSTAYMELRSLRSDDTAVYYCARREIYFYGTIYYYAMDYWGQGTLVTVSS
VL: DIQLTQSPSFLSASVGDRVTITCRASESVDYYGNSFMYWYQQKPGKAPKLLIYFASNLESGVPSRFSGSGSGTEFTLTISSLQPEDFATYYCQQNNEDPWTFGGGTKVEIKR
Work on B13 yielded an Inhibition % (Biotinylated LILRB1 [6]) of 82.8%, an Inhibition % (Biotinylated LILRB1 [7]) of 61.2% and an Inhibition % (Biotinylated LILRB1 [8]) of -3.83%. The Inhibition % (Biotinylated LILRB1 [9]) was 31.4%, the Inhibition % (Biotinylated LILRB1 [10]) was 46.9% and the koff (human LILRB1) was 5.18e-05 s⁻¹. The koff (human LILRA1 [11]) was 7.52e-06 s⁻¹, the Inhibition % (Biotinylated LILRB1 [12]) was 23.5% and the Inhibition % (Biotinylated LILRB1 [13]) was 41.6%. It also gave an Inhibition % (Biotinylated LILRB1 [14]) of 57.4%.

From patent US20260234247A1 (published 2026)
